Laboratory results reported in the supplement of paper PMC10065799, “High-throughput profiling of sequence recognition by tyrosine kinases and SH2 domains using bacterial peptide display” (eLife, 2023).

How the values were obtained:
AncSZ = assay: phosphorylation enrichment, bacterial display (enrichment ratio); higher = better substrate or ligand; peptides without Tyr show the background
EPHB1 = EPHB1 (UniProt P54762); assay: as above
EPHB2 = EPHB2 (UniProt P29323); assay: as above
FGFR1 = FGFR1 (UniProt P11362); assay: as above
Sequence of FGFR1 (P11362 whole entry, looked up): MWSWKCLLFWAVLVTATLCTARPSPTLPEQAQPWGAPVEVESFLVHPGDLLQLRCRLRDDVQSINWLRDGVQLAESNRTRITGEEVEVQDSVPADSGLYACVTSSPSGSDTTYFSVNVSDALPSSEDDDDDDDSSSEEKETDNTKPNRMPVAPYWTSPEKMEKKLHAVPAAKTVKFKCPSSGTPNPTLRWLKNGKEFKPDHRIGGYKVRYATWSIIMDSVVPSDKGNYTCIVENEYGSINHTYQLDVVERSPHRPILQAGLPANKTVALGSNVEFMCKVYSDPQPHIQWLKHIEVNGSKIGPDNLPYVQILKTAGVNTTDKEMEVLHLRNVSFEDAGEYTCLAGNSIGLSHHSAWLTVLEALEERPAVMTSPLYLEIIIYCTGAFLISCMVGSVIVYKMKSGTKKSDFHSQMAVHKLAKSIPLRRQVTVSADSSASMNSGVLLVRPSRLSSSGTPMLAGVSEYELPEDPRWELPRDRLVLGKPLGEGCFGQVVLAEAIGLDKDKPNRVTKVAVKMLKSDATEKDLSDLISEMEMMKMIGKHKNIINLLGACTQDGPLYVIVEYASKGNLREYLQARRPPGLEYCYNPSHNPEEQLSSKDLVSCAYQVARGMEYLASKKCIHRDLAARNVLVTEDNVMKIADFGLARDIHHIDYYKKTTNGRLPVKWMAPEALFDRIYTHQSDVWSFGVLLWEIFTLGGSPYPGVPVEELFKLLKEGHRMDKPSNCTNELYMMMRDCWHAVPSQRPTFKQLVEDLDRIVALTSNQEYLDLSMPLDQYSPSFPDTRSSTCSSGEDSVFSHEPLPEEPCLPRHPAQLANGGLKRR

FGFR3 = FGFR3 (UniProt P22607); assay: as above
Fer (mouse) = assay: as above
Fes = Fes (UniProt P07332); assay: as above
Fyn = Fyn (UniProt P06241); assay: as above
Sequence of Fyn (P06241 whole entry, looked up): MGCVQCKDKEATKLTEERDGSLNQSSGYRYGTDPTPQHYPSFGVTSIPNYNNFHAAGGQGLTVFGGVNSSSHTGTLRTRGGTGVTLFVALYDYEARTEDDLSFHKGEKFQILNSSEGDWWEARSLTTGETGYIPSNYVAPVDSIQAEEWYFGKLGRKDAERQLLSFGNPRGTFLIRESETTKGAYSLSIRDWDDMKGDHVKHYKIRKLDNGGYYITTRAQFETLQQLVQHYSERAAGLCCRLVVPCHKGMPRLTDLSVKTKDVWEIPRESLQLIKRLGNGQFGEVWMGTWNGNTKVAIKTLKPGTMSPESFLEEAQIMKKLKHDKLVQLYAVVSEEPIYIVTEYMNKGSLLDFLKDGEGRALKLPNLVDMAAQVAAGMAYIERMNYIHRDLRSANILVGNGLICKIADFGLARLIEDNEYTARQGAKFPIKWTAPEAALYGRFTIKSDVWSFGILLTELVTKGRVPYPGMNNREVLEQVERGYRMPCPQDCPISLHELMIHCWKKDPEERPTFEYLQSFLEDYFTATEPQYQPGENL

Hck = Hck (UniProt P08631); assay: as above
Sequence of Hck (P08631 whole entry, looked up): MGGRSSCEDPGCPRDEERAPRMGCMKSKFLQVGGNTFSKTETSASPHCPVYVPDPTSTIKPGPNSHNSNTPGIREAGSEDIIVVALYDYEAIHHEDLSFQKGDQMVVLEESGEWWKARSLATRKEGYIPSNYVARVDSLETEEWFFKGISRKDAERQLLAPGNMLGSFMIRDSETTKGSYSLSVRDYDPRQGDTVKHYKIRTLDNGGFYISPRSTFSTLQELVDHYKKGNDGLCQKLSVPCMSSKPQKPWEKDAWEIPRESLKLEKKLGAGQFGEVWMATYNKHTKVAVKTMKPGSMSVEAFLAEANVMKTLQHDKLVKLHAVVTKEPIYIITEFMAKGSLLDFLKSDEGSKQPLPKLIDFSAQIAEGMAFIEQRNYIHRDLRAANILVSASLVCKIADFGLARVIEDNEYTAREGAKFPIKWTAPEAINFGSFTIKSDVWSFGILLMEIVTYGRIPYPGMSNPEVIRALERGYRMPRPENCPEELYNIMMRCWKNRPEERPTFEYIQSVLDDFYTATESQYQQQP

Jak2 = Jak2 (UniProt O60674); assay: as above
MERTK = MERTK (UniProt Q12866); assay: as above
Sequence of MERTK (Q12866 whole entry, looked up): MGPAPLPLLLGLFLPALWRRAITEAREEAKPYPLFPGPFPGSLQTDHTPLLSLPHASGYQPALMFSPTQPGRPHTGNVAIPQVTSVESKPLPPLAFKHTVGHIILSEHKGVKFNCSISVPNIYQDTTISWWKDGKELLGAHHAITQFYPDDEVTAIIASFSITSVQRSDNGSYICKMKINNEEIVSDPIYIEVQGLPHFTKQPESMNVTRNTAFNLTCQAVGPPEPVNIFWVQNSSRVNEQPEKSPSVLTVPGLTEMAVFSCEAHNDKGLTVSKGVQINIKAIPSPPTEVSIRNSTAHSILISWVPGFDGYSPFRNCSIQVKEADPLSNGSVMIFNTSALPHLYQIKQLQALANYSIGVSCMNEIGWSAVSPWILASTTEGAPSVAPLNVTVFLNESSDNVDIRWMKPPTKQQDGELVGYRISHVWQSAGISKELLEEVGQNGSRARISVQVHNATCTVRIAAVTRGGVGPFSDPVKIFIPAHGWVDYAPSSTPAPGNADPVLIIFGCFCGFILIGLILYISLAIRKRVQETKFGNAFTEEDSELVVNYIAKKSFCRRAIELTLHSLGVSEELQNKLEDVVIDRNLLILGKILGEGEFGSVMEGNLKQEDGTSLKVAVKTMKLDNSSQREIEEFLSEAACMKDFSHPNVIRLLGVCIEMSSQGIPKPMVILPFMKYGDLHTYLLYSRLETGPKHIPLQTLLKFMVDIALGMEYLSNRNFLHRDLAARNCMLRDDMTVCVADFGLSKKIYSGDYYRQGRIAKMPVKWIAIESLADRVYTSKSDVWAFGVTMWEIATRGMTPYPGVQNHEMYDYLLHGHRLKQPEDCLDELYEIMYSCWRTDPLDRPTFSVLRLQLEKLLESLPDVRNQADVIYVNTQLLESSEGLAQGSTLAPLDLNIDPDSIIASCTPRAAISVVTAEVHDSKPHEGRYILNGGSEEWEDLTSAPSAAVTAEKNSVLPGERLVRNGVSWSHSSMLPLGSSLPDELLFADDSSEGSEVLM

c-Abl (mouse) = assay: as above
c-Src = assay: as above
Grb2 SH2 = Grb2 SH2 (UniProt P62993); assay: SH2 binding enrichment of the phosphorylated peptide, bacterial display (enrichment ratio); higher = better substrate or ligand; peptides without Tyr show the background
SHP2-C SH2 = assay: as above
c-Src SH2 = assay: as above
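Throughout, for SH2 binding enrichment of the phosphorylated peptide, bacterial display: peptide library displayed on the E. coli surface as eCPX fusions, selected cells deep-sequenced, score is each peptide's frequency after selection divided by its frequency in the input.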
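Throughout, for phosphorylation enrichment, bacterial display: 11-residue human phosphosite peptides and single-mutation variants displayed on the E. coli surface, counted by deep sequencing, each peptide's frequency after selection divided by its frequency in the unselected input library; frequency after pTyr selection over input frequency; kinase dosed for 20-30% of maximal phosphorylation in three min.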

Sequence of EPHB2 (P29323 whole entry, looked up): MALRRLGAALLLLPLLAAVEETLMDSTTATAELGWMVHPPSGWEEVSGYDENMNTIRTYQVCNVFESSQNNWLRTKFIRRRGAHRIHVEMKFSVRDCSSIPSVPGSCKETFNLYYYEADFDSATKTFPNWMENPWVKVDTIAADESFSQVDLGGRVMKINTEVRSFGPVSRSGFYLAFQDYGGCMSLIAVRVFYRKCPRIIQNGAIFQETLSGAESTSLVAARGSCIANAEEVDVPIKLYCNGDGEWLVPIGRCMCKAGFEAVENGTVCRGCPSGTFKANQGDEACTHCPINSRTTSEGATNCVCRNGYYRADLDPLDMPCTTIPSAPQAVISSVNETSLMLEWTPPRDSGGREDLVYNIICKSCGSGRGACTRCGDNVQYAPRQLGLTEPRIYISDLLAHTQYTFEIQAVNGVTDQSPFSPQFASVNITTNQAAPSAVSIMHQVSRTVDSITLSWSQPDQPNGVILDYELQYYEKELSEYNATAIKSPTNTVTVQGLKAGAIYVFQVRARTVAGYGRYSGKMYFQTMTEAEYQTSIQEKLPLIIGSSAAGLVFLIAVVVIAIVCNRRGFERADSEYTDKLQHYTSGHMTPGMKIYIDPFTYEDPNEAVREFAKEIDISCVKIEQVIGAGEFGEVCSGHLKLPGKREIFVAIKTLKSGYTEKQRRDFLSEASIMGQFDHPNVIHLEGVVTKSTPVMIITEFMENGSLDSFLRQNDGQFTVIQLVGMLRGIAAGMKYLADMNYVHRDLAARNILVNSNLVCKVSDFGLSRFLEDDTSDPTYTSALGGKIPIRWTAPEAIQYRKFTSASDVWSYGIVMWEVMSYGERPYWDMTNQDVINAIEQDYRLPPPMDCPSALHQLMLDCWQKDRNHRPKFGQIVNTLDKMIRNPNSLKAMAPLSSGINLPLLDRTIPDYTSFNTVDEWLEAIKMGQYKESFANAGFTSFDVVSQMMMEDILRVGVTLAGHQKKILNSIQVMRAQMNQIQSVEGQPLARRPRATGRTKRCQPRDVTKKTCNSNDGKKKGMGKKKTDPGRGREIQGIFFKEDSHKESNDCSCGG
Sequence of EPHB1 (P54762 whole entry, looked up): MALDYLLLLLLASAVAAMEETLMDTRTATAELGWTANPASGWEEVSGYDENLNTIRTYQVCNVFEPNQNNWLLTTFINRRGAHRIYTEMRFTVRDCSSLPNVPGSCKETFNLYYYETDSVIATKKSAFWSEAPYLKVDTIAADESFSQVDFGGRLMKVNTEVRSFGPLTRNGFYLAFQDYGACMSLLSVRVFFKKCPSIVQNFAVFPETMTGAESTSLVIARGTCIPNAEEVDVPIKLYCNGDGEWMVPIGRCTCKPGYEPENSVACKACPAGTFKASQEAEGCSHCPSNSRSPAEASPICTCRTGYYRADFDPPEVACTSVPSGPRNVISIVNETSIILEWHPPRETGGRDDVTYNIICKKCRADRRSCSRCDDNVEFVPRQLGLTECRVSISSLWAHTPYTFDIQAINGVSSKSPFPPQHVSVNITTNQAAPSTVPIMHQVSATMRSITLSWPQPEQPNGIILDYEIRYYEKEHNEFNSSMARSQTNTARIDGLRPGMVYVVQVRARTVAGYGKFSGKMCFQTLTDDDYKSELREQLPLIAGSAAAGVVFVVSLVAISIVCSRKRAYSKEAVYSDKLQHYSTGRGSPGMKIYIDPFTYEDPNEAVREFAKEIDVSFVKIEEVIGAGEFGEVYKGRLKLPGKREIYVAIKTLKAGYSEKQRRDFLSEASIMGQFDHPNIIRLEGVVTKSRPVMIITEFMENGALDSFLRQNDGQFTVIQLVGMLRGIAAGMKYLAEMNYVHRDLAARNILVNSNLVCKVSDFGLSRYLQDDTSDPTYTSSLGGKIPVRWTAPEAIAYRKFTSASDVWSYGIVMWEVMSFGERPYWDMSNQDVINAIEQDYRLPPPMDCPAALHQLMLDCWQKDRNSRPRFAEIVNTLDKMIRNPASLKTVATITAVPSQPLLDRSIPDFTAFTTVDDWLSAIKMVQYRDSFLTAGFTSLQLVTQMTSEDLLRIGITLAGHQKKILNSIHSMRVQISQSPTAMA

Sequence | SH2 binding enrichment (Grb2 SH2) | SH2 binding enrichment (SHP2-C SH2) | SH2 binding enrichment (c-Src SH2) | phosphorylation enrichment (AncSZ) | phosphorylation enrichment (EPHB1) | phosphorylation enrichment (EPHB2) | phosphorylation enrichment (FGFR1) | phosphorylation enrichment (FGFR3) | phosphorylation enrichment (Fer (mouse)) | phosphorylation enrichment (Fes) | phosphorylation enrichment (Fyn) | phosphorylation enrichment (Hck) | phosphorylation enrichment (Jak2) | phosphorylation enrichment (MERTK) | phosphorylation enrichment (c-Abl (mouse)) | phosphorylation enrichment (c-Src)
PEFINYHQHNS [BTK_Y361_L358F] | 0.659 | 0.659 | 0.608 | 0.709 | 0.299 | 0.515 | 0.821 | 0.947 | 0.335 | 0.607 | 0.552 | 0.485 | 0.933 | 0.507 | 0.491 | 1.03
IVAREYFSKAD [CAMK2B_Y107_E110K_YF] | 0.787 | 0.604 | 0.473 | 0.627 | 0.421 | 0.437 | 0.434 | 0.402 | 0.368 | 0.693 | 0.469 | 0.427 | 0.542 | 0.358 | 0.448 | 0.342
TISPYYRQSLF [CRYAA_Y48] | 0.783 | 0.767 | 0.678 | 0.859 | 0.526 | 0.474 | 0.613 | 0.653 | 0.479 | 0.787 | 0.414 | 0.433 | 0.745 | 0.468 | 0.617 | 0.492
MAQDIYRASYY [ALK_Y1278_R1275Q] | 0.882 | 0.73 | 0.755 | 0.662 | 0.576 | 0.53 | 0.786 | 0.653 | 0.451 | 0.765 | 1.62 | 2.54 | 0.61 | 0.791 | 7.45 | 3.15
DDIPLYLKGGV [COX7A2_Y44_E40D] | 0.862 | 0.663 | 0.479 | 1.01 | 0.525 | 0.701 | 0.496 | 0.737 | 0.401 | 1.12 | 0.459 | 0.513 | 1.02 | 0.41 | 0.673 | 0.435
AVLQLYIFVAT [CFTR_Y1014_P1013L] | 1 | 0.701 | 0.439 | 1.3 | 0.766 | 0.599 | 0.462 | 1.09 | 0.573 | 1.37 | 0.516 | 0.562 | 1.24 | 0.498 | 0.837 | 0.567
MSLPGYKLVTG [GJA1_Y286_P283L] | 0.766 | 0.682 | 0.489 | 0.536 | 0.374 | 0.393 | 0.495 | 0.456 | 0.518 | 0.585 | 0.378 | 0.345 | 0.497 | 0.364 | 0.348 | 0.353
PGPPGYCDSSH [COL12A1_Y3043_Q3048H] | 1.08 | 0.671 | 0.498 | 1.09 | 0.724 | 0.514 | 0.512 | 0.941 | 0.542 | 1.62 | 0.46 | 1.58 | 1.16 | 0.84 | 1.21 | 0.727
YLQEIYNSNNQ [FGG_Y140] | 0.679 | 0.77 | 0.51 | 0.918 | 0.617 | 0.561 | 0.436 | 0.606 | 0.512 | 1.23 | 1.59 | 1.54 | 0.998 | 0.441 | 0.692 | 1.84
TLQIMYGCDVG [HLA-A_Y123_I119L] | 0.851 | 0.577 | 0.546 | 1.23 | 0.594 | 0.606 | 0.619 | 0.887 | 0.654 | 1.34 | 0.528 | 0.625 | 1.4 | 0.459 | 0.997 | 0.673

Now from value to sequence, other results behind:

SH2 binding enrichment (Grb2 SH2) | SH2 binding enrichment (SHP2-C SH2) | SH2 binding enrichment (c-Src SH2) | Sequence | phosphorylation enrichment (AncSZ) | phosphorylation enrichment (EPHB1) | phosphorylation enrichment (EPHB2) | phosphorylation enrichment (FGFR1) | phosphorylation enrichment (FGFR3) | phosphorylation enrichment (Fer (mouse)) | phosphorylation enrichment (Fes) | phosphorylation enrichment (Fyn) | phosphorylation enrichment (Hck) | phosphorylation enrichment (Jak2) | phosphorylation enrichment (MERTK) | phosphorylation enrichment (c-Abl (mouse)) | phosphorylation enrichment (c-Src)
0.88 | 0.742 | 0.471 | FEPWVYSLSFE [PRKDC_Y647_F649L_YF] | 1.27 | 0.607 | 1.26 | 0.598 | 0.839 | 1.41 | 1.45 | 7.08 | 4.58 | 1.34 | 1.35 | 0.672 | 6.52
0.694 | 0.599 | 0.517 | VHSGTYQVTVC [MYBPC3_Y1043_R1048C] | 1.03 | 0.749 | 0.655 | 0.51 | 0.93 | 0.516 | 1.23 | 0.555 | 0.588 | 1.01 | 0.575 | 0.883 | 0.684
0.601 | 0.358 | 0.501 | GEFHVYRHLRR [PRKRIP1_Y82] | 1.3 | 0.43 | 0.465 | 0.57 | 0.581 | 0.4 | 0.863 | 0.484 | 0.57 | 0.896 | 0.494 | 0.601 | 0.518
1.43 | 1.44 | 1.36 | KVALLYKPYFY [POLE_Y100_P99L] | 0.987 | 0.605 | 0.483 | 0.483 | 0.693 | 0.474 | 1.11 | 0.457 | 0.514 | 0.977 | 0.473 | 0.866 | 0.737
0.751 | 0.585 | 0.364 | IRTGIYHGGEP [PIK3CA_Y361_V356I] | 0.522 | 0.392 | 0.428 | 0.385 | 0.447 | 0.399 | 0.501 | 0.551 | 0.572 | 0.653 | 0.507 | 0.516 | 0.521
0.864 | 0.767 | 0.545 | DPLASYLDKVR [KRT10_Y160_R156P] | 0.751 | 0.413 | 0.608 | 0.48 | 0.534 | 0.455 | 0.744 | 0.468 | 0.477 | 0.521 | 0.441 | 0.392 | 0.44
